± gives the standard deviation.

Among the data in the supplement of paper PMC10567573 are protein stability index values, retold here.

The data set is described as follows: protein stability index of a GFP-peptide fusion (GPS, HEK-293T) (PSI 1-6); higher = more stable.
Setting [1] is: treatment: DMSO, c terminus: a fixed tail appended.
Setting [2] is: treatment: MLN4924 1 uM, 8 h, c terminus: a fixed tail appended.
The mark [3] stands for this setting: treatment: DMSO, c terminus: native.
Where [4] appears, read: treatment: MLN4924 1 uM, 8 h, c terminus: native.
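Note: 24-mer peptide tiles fused after GFP, lentivirally expressed, FACS-sorted into six equal bins by GFP/DsRed ratio, decoded by Illumina sequencing, PSI is the read-weighted mean bin number.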

HRGLLTMQLKSPMPSSTTQKDSYQ [SPAG8]: the protein stability index reads like this: under setting [1], 3.87 ± 0.25; under setting [2], 4 ± 0.21. The corresponding values for LDTVELATYCVRTFALYKNGSSEK [PTPRD] are 2.37 ± 0.042 and 2.55 ± 0.35. The corresponding values for SLRENDFIEIELDRQELTYQELLR [ANKRD40] are 3.37 ± 0.62 and 3.57 ± 0.39. Consider VSREENREDKATIKCETSPPSSPR [PPFIA4], for which the protein stability index was found to be 5.49 ± 0.48 under setting [1] and 5.53 ± 0.21 under setting [2].

For the sequence DFWLNMAALTEALQRQAEQNPTAS [FCHO1], the protein stability index is, setting by setting: under setting [1], 2.51 ± 0.21; under setting [2], 2.47 ± 0.35. For VISKKAKVKVPQKTAGKENHFDMH [ZNF75A], in that order: 3.08 ± 0.24 and 3.06 ± 0.26. The corresponding values for DISLGQKEDGEPSWREAKVSWFGS [PWWP2B] are 3.15 ± 0.14 and 3.39 ± 0.14. For TSAEIELPDVEPAAFLALLRFLYS [BTBD1], in that order: 2.42 ± 0.25 and 2.34 ± 0.2.

On to RSFSDKQKISLLHSCTCVLYTPSN [ALG2], for which the protein stability index runs as follows: under setting [1], 2.17 ± 0.28; under setting [2], 2.1 ± 0.32.

For HMVRESKIMEAESQKATRECEKSA [FAN1], the protein stability index was found to be 5.29 ± 0.3 under setting [1] and 5.24 ± 0.14 under setting [2].

As for GAAESPYSHLGGIDYKTTTILLDG [RAB40A], the protein stability index reads like this: under setting [1], 3.61 ± 0.4; under setting [2], 3.57 ± 0.17. For GEEQSQYMHVGSCQHLSSSAEELR [KCNA3], in that order: 4.83 ± 0.25 and 4.52 ± 0.2. The corresponding values for RFDGLPAVLGFPGFSSGRHRWQVD [TRIM15] are 2.62 ± 0.12 and 2.54 ± 0.18. For GGPPAGPGGVYAGPEPPPVYTNLS [JUNB], in that order: 4.15 ± 0.12 and 4.56 ± 0.099. In the case of HPVFYQGTYSQALNDAKRELRFLL [FAF2], the protein stability index worked out at 2.26 ± 0.36 under setting [1] and 2.15 ± 0.14 under setting [2]. For RNTGAYTSSGLATASFRTSKYLLE [TEKT4], in that order: 3.1 ± 0.26 and 3.16 ± 0.22. The corresponding values for AYDFHGSWEKVTGHNSPLYKRQEE [CHIT1] are 4.33 ± 0.37 and 4.14 ± 0.45. The corresponding values for RRCGELKRKLGLTALVGLRQNLSK [TPD52L3] are 2.41 ± 0.34 and 2.57 ± 0.16. As to HTEDFQKEEGTVNGASWHTVAGSL [CPXM2], the protein stability index came to 4.63 ± 0.069 under setting [1] and 4.76 ± 0.38 under setting [2]. Turning to QVPVVDFQAELRQAFLAETPRGG [SNURF], the protein stability index is 3.04 ± 0.46 under setting [3] and 3.19 ± 0.36 under setting [4]. Consider RFVFADRERKKLVLENLEDSCVLT [TRIB3], for which the protein stability index stood at 3.18 ± 0.16 under setting [1] and 3.37 ± 0.17 under setting [2]. The corresponding values for ISHRSTVASCMHRQETVDCLKKFN [CAMK2A] are 3.23 ± 0.077 and 3.14 ± 0.11. The corresponding values for NSGTDQEQIHLLLSSQCFSNISRP [M1AP] are 2.98 ± 0.21 and 3.18 ± 0.27. The corresponding values for ALLKFHTLDSYEDKQKLKRTEIIS [YJU2B] are 2.53 ± 0.3 and 2.53 ± 0.3.

Turning to RTLWSGLPATLVMTVPATAIYFTA [SLC25A39], the protein stability index under setting [1] came to 3.07 ± 0.42 and the protein stability index under setting [2] is 3.1 ± 0.68.

Consider AMGHSQDRLTTFQENQARTHVLSK [LRRC45], for which the protein stability index is, setting by setting: under setting [1], 4.7 ± 0.21; under setting [2], 4.7 ± 0.28. Consider LEQFLAILPKELQAWVQKHHPENG [ZNF396], for which the protein stability index was determined as 2.63 ± 0.14 under setting [1] and 2.79 ± 0.24 under setting [2]. Consider QQESESEIDSVPKTQSELASESEH [MIA2], for which the protein stability index by setting is: under setting [1], 5.44 ± 0.17; under setting [2], 5.62 ± 0.15. On to ECVWNGSDSVIMTGSYNNFFRMFD [PPP2R2B], for which the protein stability index worked out at 2.23 ± 0.34 under setting [1] and 2.27 ± 0.39 under setting [2]. For DDLVPKGKKFLLLSINRYERKKNL [ALG2], in that order: 2.58 ± 0.092 and 2.67 ± 0.29.

Regarding WLPLHYAAWQGHLPIVKLLAKQPG [RIPK4], the protein stability index came out at 1.94 ± 0.24 under setting [1] and 2.63 ± 0.81 under setting [2]. On to GGTEEKSSLLMSCLACDTWAVIL [RPAIN], for which the protein stability index amounted to 2.7 ± 0.86 under setting [3] and 2.4 ± 0.84 under setting [4]. Turning to APGRPGHPSGHWATCRLCGEQVGR [ZBED3], the protein stability index is, setting by setting: under setting [1], 2.331 ± 0.015; under setting [2], 2.81 ± 0.41. The sequence LSGVDLELVGSGYRMSLVKRRFAT [FCHO1] showed a protein stability index under setting [1] of 2.33 ± 0.2 and a protein stability index under setting [2] of 2.37 ± 0.18. Take ETTEAIDDEGWLHSGDLGQLDGLG [ACSBG2]: the protein stability index is 5.23 ± 0.25 under setting [1] and 5.15 ± 0.21 under setting [2]. For SEDMWGDEDFTFGAYQPTVVSSEG [FBF1], in that order: 4.53 ± 0.23 and 4.84 ± 0.23. On to RAGGPPRPMSEPGAGAGSSLLDVA [SMAD6], for which the protein stability index reads like this: under setting [1], 4.39 ± 0.39; under setting [2], 4.37 ± 0.39. In turn, DANLLNDRVLRAMLKAEETCAPSV [CCND1] showed a protein stability index under setting [1] of 3.33 ± 0.34 and a protein stability index under setting [2] of 3.61 ± 0.23.

CFPRLDINVSKGINHLLKSPFSVH [PRIM1] came in with a protein stability index under setting [1] of 2.14 ± 0.68 and a protein stability index under setting [2] of 2.05 ± 0.36.

As to QASCDEAHKMKFSDLFSLAEEYED [INTS3], the protein stability index runs as follows: under setting [1], 4.61 ± 0.23; under setting [2], 4.77 ± 0.27. As for QPELPCAMAMGTPSTTERISTSGQ [PXN], the protein stability index runs as follows: under setting [1], 4.72 ± 0.12; under setting [2], 4.9 ± 0.17. For MHLARCRWASAPPLYTLIDVLKYS [ZSWIM9], the protein stability index was 2.94 ± 0.22 under setting [1] and 2.43 ± 0.35 under setting [2].

In the case of IRKLVAEKLNIPWNHIRLQRTAKG [AASDHPPT], the protein stability index was determined as 2.31 ± 0.27 under setting [1] and 2.44 ± 0.33 under setting [2]. For FRLETLAGLRSRRLKQPKAFCLRD [MIR22HG], in that order: 2.52 ± 0.28 and 2.46 ± 0.29. For the sequence FPYEYSYGLQGGMAFLDKRLQVKE [ATL3], the protein stability index under setting [1] was 2.53 ± 0.1 and the protein stability index under setting [2] came to 2.69 ± 0.12. For ELDELLKEISRKRRSIRYGREVEL [PTPRD], in that order: 2.5 ± 0.68 and 2.96 ± 0.61.

Regarding QSLKGHLRNNFQKQLLSNKELILD [ZC2HC1C], the protein stability index is, setting by setting: under setting [1], 3.08 ± 0.3; under setting [2], 3.17 ± 0.29. The corresponding values for ADGRIEPGDMLLQVNEINFENMSN [DVL3] are 3.95 ± 0.33 and 4.36 ± 0.32. For MSVGHLRLLSHDQVAMPYQWEYPY [JAGN1], in that order: 2.11 ± 0.29 and 2.02 ± 0.4. The corresponding values for VTTTSSASVTTTSNASGRRTSDVR [KRT13] are 5.07 ± 0.15 and 5.24 ± 0.15. In the case of RLLQAQLQAQKEELQSLMHQPKGL [PBXIP1], the protein stability index amounted to 2.91 ± 0.14 under setting [1] and 2.9 ± 0.26 under setting [2].

For IEKEYQPHVIVSTTGPNPFTTLTD [ADD1], the protein stability index by setting is: under setting [1], 3.74 ± 0.25; under setting [2], 3.9 ± 0.23. Sequence LQLETVLEGVVSQIDAVGSKLKML [PKD2L1] had a protein stability index under setting [1] of 2.37 ± 0.42 and a protein stability index under setting [2] of 2.37 ± 0.11. ELANGKPQTRSGPECGLAKKPPEE [ADAMTSL2] had a protein stability index under setting [2] of 4.78 ± 0.42. CDECGKHFSQGSALILHQRIHSGE [ZNF24]: the protein stability index under setting [1] amounted to 5.16 ± 0.2 and the protein stability index under setting [2] was determined as 5.43 ± 0.2.

As to AFPSGHLLDAHILEWHDSLFQILS [ZNF511], the protein stability index runs as follows: under setting [1], 2.35 ± 0.33; under setting [2], 2.29 ± 0.3. For IERLTREVEATRRALIDRMVNLHQ [DDIT3], in that order: 2.45 ± 0.18 and 2.61 ± 0.24.

For the sequence GKTYCKRDYVRLFGIKCAKCQVGF [ISL2], the protein stability index worked out at 2.03 ± 0.19 under setting [1] and 2.17 ± 0.23 under setting [2]. With SSVICNDITAYLFGFFFGRTPLIK [CDS1], the protein stability index by setting is: under setting [1], 2.13 ± 1.2; under setting [2], 2.02 ± 0.082. The corresponding values for DVKRLGKQNARFLTSMRRLSSIKR [STX11] are 2.9 ± 0.35 and 2.98 ± 0.42.

Consider SQRQAKELKLEQQEAAERESKLLR [LRRC45], for which the protein stability index came to 5.17 ± 0.28 under setting [1] and 5.22 ± 0.1 under setting [2]. Take LERGRASLIFSLKNEVGGLIKALK [TPH1]: the protein stability index turned out to be 3.37 ± 0.36 under setting [1] and 2.36 ± 0.61 under setting [2]. For KYREAARLEINVLKKIKEKDKENK [CLK3], in that order: 4.45 ± 0.18 and 4.25 ± 0.41. Take WMMQNLLLEEGGLVQVESVNLQVA [UFD1]: the protein stability index runs as follows: under setting [1], 2.1 ± 0.29; under setting [2], 2.33 ± 0.59. Consider VALLRAHAGEHLLLGATKRSMVFK [HNF4A], for which the protein stability index is 2.27 ± 0.45 under setting [1] and 2.48 ± 0.096 under setting [2]. Regarding AFVRMKQLIEEGYVGEPLVCEVQV [GFOD1], the protein stability index is, setting by setting: under setting [1], 2.47 ± 0.77; under setting [2], 2.55 ± 0.71. For the sequence LSSPEFSELCIWLGSQIKSLCNLE [FAM98B], the protein stability index is, setting by setting: under setting [1], 2.17 ± 0.81; under setting [2], 2.76 ± 0.82.

In the case of KEQDGREVDWEYFYGLLFTSENLK [DFFB], the protein stability index by setting is: under setting [1], 2.617 ± 0.019; under setting [2], 2.93 ± 0.01.

Turning to HGNQSAGEDQAFGDWLLTANGSEI [SLC22A15], the protein stability index reads like this: under setting [1], 4.56 ± 0.34; under setting [2], 4.67 ± 0.18.

As for VLEVRTENLKQQRSRREQFSRAPV [STX5], the protein stability index runs as follows: under setting [1], 3.4 ± 0.45; under setting [2], 3.63 ± 0.41.

As for EEKQRELARKGSLKNGSMGSPVNQ [FAM219A], the protein stability index under setting [1] worked out at 5.33 ± 0.097 and the protein stability index under setting [2] amounted to 5.35 ± 0.16. For SLLSLPVWVLMDEDVRIFFYQSPY [NCF4], in that order: 2.56 ± 0.24 and 2.66 ± 0.47.
